Here are results for one substance from PMC6706414.

The assay concerns the target Mimic of H2B ubiquitinated nucleosome core particle with H3K36M (ubiquitin fused to H2A R17, H2B, H3K36M, H4, 149 bp 601 DNA) (S. cerevisiae | Xenopus laevis) (UniProt P0CG63). The experiment in a line: native gel or EMSA; native PAGE; NCPs and Set2 incubated for 1 h on ice in 25 mM HEPES, pH 7.5, 50 mM NaCl, 1 mM DTT, 160 μm SAM.
Sequence of UniProt P0CG63 (P0CG63 whole entry, looked up, the tested form may be a part): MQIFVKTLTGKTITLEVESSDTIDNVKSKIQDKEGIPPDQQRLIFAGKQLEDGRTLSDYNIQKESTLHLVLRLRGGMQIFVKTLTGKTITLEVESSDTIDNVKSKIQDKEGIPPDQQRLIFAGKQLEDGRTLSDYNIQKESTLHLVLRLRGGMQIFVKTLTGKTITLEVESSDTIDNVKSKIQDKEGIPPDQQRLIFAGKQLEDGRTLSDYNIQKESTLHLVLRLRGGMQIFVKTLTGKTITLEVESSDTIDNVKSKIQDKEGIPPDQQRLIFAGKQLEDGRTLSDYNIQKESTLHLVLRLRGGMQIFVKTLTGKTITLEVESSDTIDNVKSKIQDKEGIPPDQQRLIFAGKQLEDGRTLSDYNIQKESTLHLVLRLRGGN

Take “Chaetomium thermophilum Set2 methyltransferase, full-length (enzyme)”: the percent of the NCP band shifted at twofold excess of Set2 was found to be 50%.
